Assay results: patent US20190367619A1 (ARGENX, published 2019)
Where two headings read alike, the source gives them in different places.

T1: TEV-cleaved wild-type recombinant human galectin-10 (soluble, in Fab complexes, or as recombinant galectin-10 … (human, UniProt Q05315 1-142))
T1 sequence: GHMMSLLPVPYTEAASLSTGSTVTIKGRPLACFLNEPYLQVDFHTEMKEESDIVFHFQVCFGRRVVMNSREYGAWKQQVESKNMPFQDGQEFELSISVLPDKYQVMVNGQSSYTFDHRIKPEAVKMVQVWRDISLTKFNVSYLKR

T2: human galectin-10-His (recombinant human galectin-10 with TEV-cleavable N-terminal His-tag) (human)
T2 construct: SEC-MALLS: dimer in solution; also called Gal10-His; humanGal10-His
T2 chain: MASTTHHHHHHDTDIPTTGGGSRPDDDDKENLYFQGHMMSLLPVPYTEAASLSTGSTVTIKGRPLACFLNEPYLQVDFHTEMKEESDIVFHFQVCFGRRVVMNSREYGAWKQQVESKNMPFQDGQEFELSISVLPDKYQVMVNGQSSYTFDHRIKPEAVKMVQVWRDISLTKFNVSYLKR

T3: cynomolgus galectin-10-His, YRT isoform (cynomolgus)
T3 sequence: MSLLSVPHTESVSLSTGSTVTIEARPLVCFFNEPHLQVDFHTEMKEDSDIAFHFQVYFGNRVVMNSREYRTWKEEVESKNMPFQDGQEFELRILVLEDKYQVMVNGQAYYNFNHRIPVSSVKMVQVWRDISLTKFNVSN


Experiments:
[1] = molecular target: T1, TEV-cleaved wild-type recombinant human …; experiment: cell-based or functional assay
[2] = molecular target: T1, TEV-cleaved wild-type recombinant human …; experiment: cell-based or functional assay; remark: listed apart in the source
[3] = molecular target: T1, TEV-cleaved wild-type recombinant human …; experiment: cell-based or functional assay; remark: listed apart in the source
[4] = molecular target: T2, human galectin-10-His (recombinant …); experiment: ELISA binding (summary table), mouse IgG1
[5] = molecular target: T2, human galectin-10-His (recombinant …); experiment: Biacore capture approach (summary table), mouse IgG1
Method: (§1) The binding capacity of the mouse IgG1 antibodies to galectin-10 was analyzed on Biacore T3000. For this purpose, a capture approach was set up. A CM5 Chip was coated with polyclonal anti-mouse Fc at 8000 RU, then a fixed concentration of the mouse IgG1 antibody panel (1.5 μg/mL), diluted in HBS-EP pH7.4, was captured to reach a binding signal around 150 RU. Finally, a serial dilution of galectin-10-His (serial dilution, 1 over 2 from 5 μg/mL) diluted in HBS-EP pH7.4 was injected. Raw data were analyzed via BIA evaluation software with a blank subtraction (4-3). The kd/KD and Rmax of each mAb to galectin-10-His was determined using the Fit Kinetics simultaneous ka/kd/Binding with mass transfer/Local Rmax on BIA evaluation software.

[6] = molecular target: T2, human galectin-10-His (recombinant …); experiment: ELISA, mouse IgG1 on coated galectin-10-His (0.2 ug/mL)
Method: In a similar setup to that used during the characterization of the scFv-human Fc molecules, the relative binding affinities of the 10 mouse IgG1 antibodies were analyzed by ELISA. A Maxisorp plate was coated overnight with 0.2 μg/mL of galectin-10-His. Then a serial dilution of each clone (from 100 nM, dilution 1/4, 12 points of dilutions) was incubated on coated galectin-10. After several washing steps, detection of the bound mouse IgG1 was carried out with an anti-mouse Fc-HRP antibody. Absorbance was measured at 450 nm (reference at 620 nm) with Tecan instrument. A mouse IgG1 isotype control was used as negative control. A polyclonal anti-galectin-10 antibody was used as positive control for the coating of galectin-10. The raw data (OD values) were plotted on GraphPad Prism 7.01. The EC50 values for each antibody, calculated with a non-linear regression (log(agonist) vs. response Variable slope (four parameters)), are reported in Table 7 below.

[7] = molecular target: T2, human galectin-10-His (recombinant …); experiment: BLI tandem on galectin-10-His; competitor: saturating 1C09 mIgG1 (10 ug/mL)
Method: (§2) In order to identify the galectin-10 binding sites of the different clones, an epitope mapping method (TANDEM), using the BLI technology, was established. Briefly, the galectin-10-His was captured on anti-HIS 1K sensor tips, before incubation with an excess of one antibody (called the “saturating” antibody) then directly transferred to a solution containing the “competitor” antibody at a suboptimal concentration. If the “saturating” and the competitor antibody bind to the same binding sites, no binding of “competitor” will be detected (expressed in nm shift).

[8] = molecular target: T2, human galectin-10-His (recombinant …); experiment: BLI tandem on galectin-10-His; competitor: saturating 1D11 mIgG1 (10 ug/mL)
Method: as §2

[9] = molecular target: T2, human galectin-10-His (recombinant …); experiment: BLI tandem on galectin-10-His; competitor: saturating 2C07 mIgG1 (10 ug/mL)
Method: as §2

[10] = molecular target: T2, human galectin-10-His (recombinant …); experiment: BLI tandem on galectin-10-His; competitor: saturating 2F09 mIgG1 (10 ug/mL)
Method: as §2

[11] = molecular target: T2, human galectin-10-His (recombinant …); experiment: BLI tandem on galectin-10-His; competitor: saturating 4E08 mIgG1 (10 ug/mL)
Method: as §2

[12] = molecular target: T2, human galectin-10-His (recombinant …); experiment: BLI tandem on galectin-10-His; competitor: saturating 6A05 mIgG1 (10 ug/mL)
Method: as §2

[13] = molecular target: T2, human galectin-10-His (recombinant …); experiment: BLI tandem on galectin-10-His; competitor: saturating 6A08 mIgG1 (10 ug/mL)
Method: as §2

[14] = molecular target: T2, human galectin-10-His (recombinant …); experiment: BLI tandem on galectin-10-His; competitor: saturating 6B06 mIgG1 (10 ug/mL)
Method: as §2

[15] = molecular target: T2, human galectin-10-His (recombinant …); experiment: BLI tandem on galectin-10-His; competitor: saturating 6E10 mIgG1 (10 ug/mL)
Method: as §2

[16] = molecular target: T2, human galectin-10-His (recombinant …); experiment: BLI tandem on galectin-10-His; competitor: saturating 6F06 mIgG1 (10 ug/mL)
Method: as §2

[17] = molecular target: T2, human galectin-10-His (recombinant …); experiment: BLI tandem on galectin-10-His; isotype control as saturating antibody (10 ug/mL)
Method: as §2

[18] = molecular target: T2, human galectin-10-His (recombinant …); experiment: SPR Biacore T3000, mouse IgG1 captured by anti-mouse Fc, galectin-10-His as analyte
Method: as §1

[19] = molecular target: T3, cynomolgus galectin-10-His, YRT isoform (cynomolgus); experiment: ELISA, coated antigen 0.5 ug/mL

| dissolution of in vitro grown Gal10 crystals (spinning disk confocal microscopy) [1] [min] | 100% Solubilization of CLC (Conc uM) [2] [µM] | 100% Inhibition of CLC formation (Conc uM) [3] [µM] | 100% Solubilization of CLC (Conc uM) [3] [µM] | EC50 [4] [nM] | Kd [5] [nM] | koff [5] [s⁻¹] | Bmax [6] [OD] | EC50 [6] [nM] | binding signal (nm) [7] [nm] | binding signal (nm) [8] [nm] | binding signal (nm) [9] [nm] | binding signal (nm) [10] [nm] | binding signal (nm) [11] [nm] | binding signal (nm) [12] [nm] | binding signal (nm) [13] [nm] | binding signal (nm) [14] [nm] | binding signal (nm) [15] [nm] | binding signal (nm) [16] [nm] | binding signal (nm) [17] [nm] | Binder | further results |
| --- | --- | --- | --- | --- | --- | --- | --- | --- | --- | --- | --- | --- | --- | --- | --- | --- | --- | --- | --- | --- | --- |
| ≤ 90 | > 10 | 1.11 | > 10 | 3.22 | 0.8 | 0.00085 | 2.06 | 3.22 | -0.02 | 0.03 | 0 | 0.01 | -0.08 | 0.03 | -0.03 | 0 | -0.05 | 0.01 | 0.97 | 4E08 mouse IgG1 (antibody, V domains shown, VH on mouse IgG1 heavy chain constant domains (CH1-CH2-CH3), VL on mouse lambda light chain constant domain; also called 4E8; 4E08 mIgG1) VH: QVQRQESGPGLVKPSQTLSLTCTVSGGSITTSYYAWSWIRQPPGKGLEWMGVIASDGSTYYSPSLKSRTSISRDTSKNQFSLQLSSVTPEDTAVYYCALYIRGSSWSGWSAYDYWGQGTQVTVSS VL: QPVLNQPSAVSVSLGQTARITCQGGNFGYYYGSWYQQKPGQAPVLVIYKDSERPSGIPERFSGSSSGGTATLTISRAQAEDEADYYCQSADSSDNPVFGGGTHLTVL | Kd [18]: 0.8 nM; koff [18]: 0.00085 s⁻¹ |
| ≤ 90 | 10.5 | 0.82 | 10.5 | 0.13 | 0.5 | 0.00529 | 2.3 | 0.13 | 0.03 | 0.1 | 0.03 | 0.02 | 0.08 | 0.09 | 0.04 | 0.02 | 0.02 | 0.04 | 1.21 | 1C09 mouse IgG1 (antibody, V domains shown, VH on mouse IgG1 heavy chain constant domains (CH1-CH2-CH3), VL on mouse lambda light chain constant domain; also called 1C09 mIgG1) VH: QVQLVESGPGLVKPSQTLSLTCTVSGGSITTNSYYWSWIRQPPGKGLEWMGAIAYSGSTYYSPSLKSRTSISRDTSKNQFTLHLSSVTPEDTAVYYCARRPNWYRALDAWGQGTLVTVSS VL: NFMLTQPSAVSVSLGQTARITCQGANLGRYYGIWYQQKPGQAPVQVIYGDSNRPSGIPERFSGSSSGGTATLTISGAQAEDEADYYCQSYESSTSPVFGGGTHLTVL | Kd [18]: 0.5 nM; koff [18]: 0.00529 s⁻¹ |
|  |  |  |  |  |  |  |  |  |  |  |  |  |  |  |  |  |  |  |  | 1D11 mouse IgG1 (antibody, V domains shown) VH: QVQLVESGGGLVQPGGSLRLSCAASGFTFDDYAMSWVRQAPGKGLEWVSGISWNGGSTYYAESMKGRFTISRDNAKNTLYLQMNSLKSEDTAVYYCAKDRNLGYRLGYPYDYWGQGTQVTVSS VL: QSVLTQPPSVSGSPGETVTISCAGTSSDVGYGNYVSWYQQLPGMAPRLLIYEVNKRASGITDRFSGSKSGNTASLTISGLQSEDEGDYYCASYRSSNNAVFGGGTHLTVL | OD values [19]: 0.03 OD |
